What was measured:
[1] = molecular target: T1, recombinant mouse PD-1-his protein (mouse, UniProt Q02242 25-167, limits assumed); test: ELISA; PD-1-his coated 2 µg/mL, anti-human IgG-HRP
T1 construct: not shown: his tag
T1 sequence (looked up): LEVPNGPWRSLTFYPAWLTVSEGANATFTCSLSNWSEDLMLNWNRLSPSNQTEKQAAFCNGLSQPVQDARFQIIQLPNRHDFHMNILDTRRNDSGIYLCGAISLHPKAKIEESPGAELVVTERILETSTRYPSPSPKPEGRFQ
Description: Ninety-six-well Greiner plates were coated with 2 μg/mL of recombinant human PD-1-his protein, recombinant monkey PD-1-his protein and recombinant mouse PD-1-his protein at 4° C. overnight. The next day, the plates were blocked with 1% casein. […] Then, the plates were washed with PBST. Anti-human IgG-HRP (diluted in 1% casein at 1:5000) was added and incubated for 1 hr., and binding detection was performed.

[2] = molecular target: T2, recombinant human PD-1-his protein (human, UniProt Q15116 25-167); test: SPR (Biacore 8K); PD-1-his amine-coupled to CM5, 1:1 Langmuir fit
T2 construct: also called hPD-1-his; not shown: his tag
T2 sequence (Q15116 25-167 limits assumed): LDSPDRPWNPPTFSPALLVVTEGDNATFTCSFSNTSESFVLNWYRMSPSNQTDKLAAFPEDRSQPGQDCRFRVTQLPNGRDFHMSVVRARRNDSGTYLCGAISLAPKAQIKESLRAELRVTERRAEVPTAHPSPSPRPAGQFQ
Description: About 250RU of recombinant human PD-1-his protein was coupled to a CM5 chip at 25° C. using an amine coupling kit (GE Healthcare, Cat No. BR100050) according to standard amine coupling procedure. […] (five concentrations were detected). The binding time was 120 s, and the dissociation time was 600 s. The curve was fitted with 1:1 Langmuir binding model using Biacore®8K analysis software (BIAevaluation) to determine the kinetic constants thereof, such as, association rate constant, dissociation rate constant, equilibrium dissociation constant, etc.

[3] = molecular target: T3, human PD-1 on HEK293 cells overexpressing human PD-1 (human, UniProt Q15116 25-288); test: flow cytometry on HEK293 cells overexpressing human PD-1; PE-anti-human IgG
T3 construct: whole, on cells; also called HEK293/hPD1; hPD-1
T3 sequence (Q15116 25-288): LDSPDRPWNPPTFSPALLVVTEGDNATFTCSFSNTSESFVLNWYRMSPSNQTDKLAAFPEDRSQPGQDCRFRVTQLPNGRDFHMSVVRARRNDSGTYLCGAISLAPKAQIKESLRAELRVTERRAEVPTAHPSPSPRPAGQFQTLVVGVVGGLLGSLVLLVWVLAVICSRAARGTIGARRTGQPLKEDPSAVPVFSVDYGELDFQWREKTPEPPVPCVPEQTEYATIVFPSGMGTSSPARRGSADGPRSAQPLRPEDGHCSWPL
Description: HEK293 cells overexpressing the human PD-1 were cultured in a DMEM medium containing 10% FBS in a CO₂ incubator (37° C., 5% CO₂). The cells were harvested and washed once with test buffer. Cells were counted and detected for viability. […] The cells were washed with washing buffer, and 100 μL of PE-anti-human IgG was added in accordance with the instruction and incubated in dark at 4° C. for 1 hr. The cells were washed three times with washing buffer, and individual samples were re-suspended in 200 μL of PBS and detected by flow cytometer. The data were analyzed using FCS Express 6 Plus and GraphPad Prism 5 software.

[4] = molecular target: T2, recombinant human PD-1-his protein; test: ELISA (first round of humanization); PD-1-his coated 2 µg/mL, anti-human IgG Fc-HRP
Description: 96-well ELISA plates were coated with 2 μg/mL of recombinant human PD-1-his antigen protein at 30 μL/well at 4° C. overnight. The plates were washed three times with PBST. 5% PBS-Milk was added and incubated at room temperature for 2 h. The plates were washed three times with PBST. All the nanobody-Fc fusion proteins were subject to 3-fold gradient dilutions with an initial concentration of 10 μg/mL, added into each well at 30 μL/well, and incubated at room temperature for 1 hr. The plates were washed three times with PBST. The secondary antibody Goat-Anti-Human-IgG-Fc-HRP (purchased from Sigma) was diluted at 1:8000, added into each well at 30 μL/well, and incubated at room temperature for 50 min. The plates were washed three times with PBST. TMB (purchased from SurModics) was added into each well at 30 μL/well and developed at room temperature in dark for 1 min to 5 min. 2 M hydrochloric acid was added at 30 μL/well to stop the reaction. The OD450 absorbance value was read by a microplate reader.

[5] = molecular target: T4, recombinant human PD-1 (C-Fc & C-Avi & C-6×His) (human, UniProt Q15116 25-167); test: competitive ELISA; PD-L1 (C-Fc) coated, 0.5 µg/mL PD-1 (C-Fc & C-Avi & C-6×His), streptavidin-HRP
T4 construct: not shown: C-terminal Fc, Avi tag and 6×His tag
T4 sequence (Q15116 25-167 limits assumed): as the sequence (Q15116 25-167 limits assumed) above
Description: The plates were blocked with 1% casein. […] The plates were washed with PBST between incubations. Horseradish peroxidase-labelled streptavidin (1:10000) was used for detection, and Graphpad Prism software was used to fit the curve and calculate the EC₅₀ value, with the results shown in Table 3.

[6] = molecular target: T3, human PD-1 on HEK293 cells …; test: competitive flow cytometry on HEK293 cells overexpressing human PD-1; 1.0 µg/mL biotinylated human PD-L1 as competitor, PE-SA
Description: The cells were harvested and washed once with test buffer. […] The data were analyzed using FCS Express 6 Plus and GraphPad Prism 5 software.

B1: MHPD1-A Fc (Fc fusion)
chain: QVQLVESGGGSVQVGGSLTLSCAASGSDPSIYAMGWFRQAPGKEHEFVAGIGWSAATTYYADSVKGRFGISRDNTKNTVALLMNSLKPEDTAIYYCAADLDHSGFDYWGQGTQVTVSS
notes: C-terminal of VHH directly connected to the N-terminal of the human Fc hinge region; also called nanobody-Fc fusion protein; fusion protein; not shown: human Fc fragment with hinge
In the case of B1, the binding result [1] is reported as “no binding (tested: 5 µg/mL and 1.67 µg/mL)”, the Kd [2] is reported as 0.0425 nM and the koff [2] is reported as 1.95e-05 s⁻¹. It also gave a kon [2] of 460000 M⁻¹ s⁻¹, an EC50 [3] of 0.245 µg/mL and an EC50 [4] of 0.14 µg/mL. For the same binder, the EC50 [5] was 0.499 µg/mL and the EC50 [6] was 0.549 µg/mL.

From patent US20240309093A1 (MINGHUI PHARMACEUTICAL HANGZHOU, published 2024)
